From US20200397816A1, “METHODS TO TREAT INFLAMMATORY AND SMOOTH MUSCLE CELL PROLIFERATION DISORDERS” (THE TRUSTEES OF INDIANA UNIVERSITY, priority 2019, published 2020)
“Also recorded” adds a separate entry of the source.

Test system: pSphK1
Test: pSphK1 immunofluorescence in THP-1 macrophages
Assay type: cell-based, human
Conditions: THP1 macrophages; 1 hour EMAP II
Description: Few passages after thawing of THP-1 cell line, cells were seeded in Nunc Lab-Tek™ II 4-well imaging plates and treated with 100 nM Phorbol myristate acetate (InvivoGen, CA) for 3 days allowing THP-1 monocytes to differentiate into macrophages.
Primary hPASMCs cells or human THP-1 macrophages were seeded in Nunc Lab-Tek™ II 4-well imaging plates (Thermo Fisher Scientific) chamber well slides and cultured in growth medium. After the serum starvation cells were stimulated with EMAP II. Treated cells were rinsed with PBS and fixed with 4% paraformaldehyde at room temperature for 15 min and permeabilized with 0.1% Triton X-100 at room temperature for 10 min After washing with PBS three times, the cells were incubated with EGR1, 1amin, or pSphK1 antibody at 40C overnight. The cells were then rinsed with PBS three times and subsequently incubated with respective secondary antibody conjugated with Alex Fluor 647 and 488 or Phalloidin 488 at room temperature for 1 h. The cells were rinsed with PBS three times and coverslips were mounted with SlowFade Gold Antifade Mountant with DAPI (Thermo Fischer Scientific) and the cells were examined under Olympus microscope with 40× for EGR1 expression and with 60× for pSphK1 water immersion. […]

B1: EMAP II: 6x-His tagged recombinant EMAP II, cleaved C-terminal peptide of AIMP1 (SEQ ID NO: 2), pro-inflammatory cytokine (protein)
chain: IAGSADSKPIDVSRLDLRIGCIITARKHPDADSLYVEEVDVGEIAPRTVVSGLVNHVPLEQMQNRMVILLCNLKPAKMRGVLSQAMVMCASSPEKIEILAPPNGSVPGDRITFDAFPGEPDKELNPKKKIWEQIQPDLHTNDECVATYKGVPFEVKGKGVCRAQTMSNSGIK
- pSphK1 localization to the plasma membrane: stimulated translocation; also recorded: elevated levels of pSPHK1
